pERK ICW EC50 data for 26 substances are collected here from US20250171512A1.

Chain of FGF21 Q184 deleted (SEQ ID NO: 60) (Q9NSA1 other isoform, or with tags, fused parts or gaps): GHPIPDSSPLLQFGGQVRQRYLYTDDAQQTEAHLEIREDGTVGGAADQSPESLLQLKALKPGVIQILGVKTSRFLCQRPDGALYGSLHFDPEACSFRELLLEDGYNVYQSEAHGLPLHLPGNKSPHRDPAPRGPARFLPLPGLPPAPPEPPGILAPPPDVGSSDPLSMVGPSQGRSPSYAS
Chain of FGF21 P185-P186 deleted (SEQ ID NO: 59) (Q9NSA1 other isoform, or with tags, fused parts or gaps): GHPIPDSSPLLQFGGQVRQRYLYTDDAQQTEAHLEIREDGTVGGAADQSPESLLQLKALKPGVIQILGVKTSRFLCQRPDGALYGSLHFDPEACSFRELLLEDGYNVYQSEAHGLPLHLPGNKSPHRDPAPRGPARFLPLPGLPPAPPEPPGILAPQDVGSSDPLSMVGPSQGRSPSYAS
Chain of FGF21 S206 deleted (SEQ ID NO: 67) (Q9NSA1 other isoform, or with tags, fused parts or gaps): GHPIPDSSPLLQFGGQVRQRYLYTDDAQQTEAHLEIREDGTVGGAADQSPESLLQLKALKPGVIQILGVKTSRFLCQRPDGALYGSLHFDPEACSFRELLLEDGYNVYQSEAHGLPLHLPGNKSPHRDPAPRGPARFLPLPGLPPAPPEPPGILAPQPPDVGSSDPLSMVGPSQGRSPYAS
Chain of FGF21 M196 deleted, S201 deleted (SEQ ID NO: 70) (Q9NSA1 other isoform, or with tags, fused parts or gaps): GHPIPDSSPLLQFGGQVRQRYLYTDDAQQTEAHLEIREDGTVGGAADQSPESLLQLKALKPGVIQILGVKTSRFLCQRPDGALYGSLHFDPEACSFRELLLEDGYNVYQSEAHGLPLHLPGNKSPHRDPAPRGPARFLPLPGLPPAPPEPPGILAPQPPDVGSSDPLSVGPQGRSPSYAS
Chain of FGF21 G198-P199 deleted (SEQ ID NO: 30) (Q9NSA1 other isoform, or with tags, fused parts or gaps): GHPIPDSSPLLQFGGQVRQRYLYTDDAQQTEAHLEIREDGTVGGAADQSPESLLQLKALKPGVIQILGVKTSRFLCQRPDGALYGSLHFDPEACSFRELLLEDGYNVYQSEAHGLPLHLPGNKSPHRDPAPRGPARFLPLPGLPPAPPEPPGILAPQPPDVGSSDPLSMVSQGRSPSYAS
Chain of FGF21 S191 deleted (SEQ ID NO: 53) (Q9NSA1 other isoform, or with tags, fused parts or gaps): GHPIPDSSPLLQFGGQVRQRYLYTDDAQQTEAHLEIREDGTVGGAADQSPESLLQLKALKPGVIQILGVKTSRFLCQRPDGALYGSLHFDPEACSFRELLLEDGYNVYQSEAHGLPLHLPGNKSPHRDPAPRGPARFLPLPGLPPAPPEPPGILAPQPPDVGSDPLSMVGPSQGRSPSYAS

For this experiment, the target named is human FGFR1c together with human beta-Klotho (KLB), stably expressed on CHO Flp-In cells (human) (UniProt P11362). The experiment is described as follows: cell-based or functional assay.
Chain of human FGFR1c together with human beta-Klotho (KLB), stably expressed on CHO Flp-In cells (human) (P11362 22-822, chain 1 of 2): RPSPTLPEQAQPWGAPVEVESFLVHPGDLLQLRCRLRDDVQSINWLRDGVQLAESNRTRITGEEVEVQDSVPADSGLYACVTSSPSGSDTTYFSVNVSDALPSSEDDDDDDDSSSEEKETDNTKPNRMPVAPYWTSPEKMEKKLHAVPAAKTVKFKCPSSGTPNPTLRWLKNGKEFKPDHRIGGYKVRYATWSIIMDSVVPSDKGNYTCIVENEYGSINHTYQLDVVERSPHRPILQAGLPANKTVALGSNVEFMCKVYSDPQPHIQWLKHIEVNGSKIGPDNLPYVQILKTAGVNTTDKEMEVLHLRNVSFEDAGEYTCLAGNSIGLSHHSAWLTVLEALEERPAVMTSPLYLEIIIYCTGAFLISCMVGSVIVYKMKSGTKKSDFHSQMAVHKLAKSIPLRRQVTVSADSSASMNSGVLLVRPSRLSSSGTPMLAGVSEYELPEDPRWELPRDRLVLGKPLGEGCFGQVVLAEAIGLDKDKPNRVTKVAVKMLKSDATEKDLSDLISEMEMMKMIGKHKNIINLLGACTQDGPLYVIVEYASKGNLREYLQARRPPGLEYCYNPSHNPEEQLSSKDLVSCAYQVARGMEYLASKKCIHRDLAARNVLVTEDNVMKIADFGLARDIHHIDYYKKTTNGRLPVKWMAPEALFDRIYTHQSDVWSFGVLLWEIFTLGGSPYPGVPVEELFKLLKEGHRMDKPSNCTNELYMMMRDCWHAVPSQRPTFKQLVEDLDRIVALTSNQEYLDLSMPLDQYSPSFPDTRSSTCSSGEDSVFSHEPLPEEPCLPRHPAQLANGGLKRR
Chain of human FGFR1c together with human beta-Klotho (KLB), stably expressed on CHO Flp-In cells (human) (Q86Z14 whole entry, chain 2 of 2, further chain): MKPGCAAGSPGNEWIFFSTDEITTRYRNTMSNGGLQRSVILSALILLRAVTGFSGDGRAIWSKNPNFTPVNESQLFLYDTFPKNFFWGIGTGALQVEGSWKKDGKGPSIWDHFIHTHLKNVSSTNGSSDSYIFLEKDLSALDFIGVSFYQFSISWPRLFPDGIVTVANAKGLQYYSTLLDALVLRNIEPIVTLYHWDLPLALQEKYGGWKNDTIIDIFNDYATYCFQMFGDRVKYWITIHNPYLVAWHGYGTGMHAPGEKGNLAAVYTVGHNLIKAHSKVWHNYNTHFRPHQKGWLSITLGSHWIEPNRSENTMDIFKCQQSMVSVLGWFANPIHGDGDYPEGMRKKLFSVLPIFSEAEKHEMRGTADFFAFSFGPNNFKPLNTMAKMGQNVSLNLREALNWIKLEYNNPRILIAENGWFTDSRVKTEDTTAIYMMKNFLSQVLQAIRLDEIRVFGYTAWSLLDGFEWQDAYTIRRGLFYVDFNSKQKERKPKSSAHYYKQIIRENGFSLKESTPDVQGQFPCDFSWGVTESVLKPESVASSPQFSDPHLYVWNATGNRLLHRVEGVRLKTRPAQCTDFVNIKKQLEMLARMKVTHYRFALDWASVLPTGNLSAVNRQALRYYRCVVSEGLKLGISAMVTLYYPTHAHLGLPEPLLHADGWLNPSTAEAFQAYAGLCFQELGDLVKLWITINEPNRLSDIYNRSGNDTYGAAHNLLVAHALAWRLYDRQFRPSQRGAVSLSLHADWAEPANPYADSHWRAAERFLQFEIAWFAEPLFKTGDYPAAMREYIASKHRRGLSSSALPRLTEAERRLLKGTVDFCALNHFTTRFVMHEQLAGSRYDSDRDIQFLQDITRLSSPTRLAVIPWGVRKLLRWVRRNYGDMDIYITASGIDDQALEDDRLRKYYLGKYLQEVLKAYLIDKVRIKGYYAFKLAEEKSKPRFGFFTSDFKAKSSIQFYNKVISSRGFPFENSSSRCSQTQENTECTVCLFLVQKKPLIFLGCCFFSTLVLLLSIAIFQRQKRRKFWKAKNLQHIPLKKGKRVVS
As for “FGF21 Q55C, P147C, P199 deleted (SEQ ID NO: 44) (from UniProt Q9NSA1 29-209) (ligand)”, the pERK ICW EC50 worked out at 10 nmol/L. To “FGF21 D130C, Y132C (SEQ ID NO: 83) (from UniProt Q9NSA1 29-209) (ligand)” belongs 49.4 nmol/L; to “FGF21 S206 deleted (SEQ ID NO: 67) (from UniProt Q9NSA1 29-205) (ligand)”, 31.9 nmol/L.

Substance “FGF21 A120C, A139C (SEQ ID NO: 114) (from UniProt Q9NSA1 29-209) (ligand)” showed a pERK ICW EC50 of 22 nmol/L. With “FGF21 P185-P186 deleted (SEQ ID NO: 59) (from UniProt Q9NSA1 29-209) (ligand)” the figure was 21.1 nmol/L; with “FGF21 G198Y (SEQ ID NO: 20) (from UniProt Q9NSA1 29-209) (ligand)”, 0.68 nmol/L; with “FGF21 A54C, P161C (SEQ ID NO: 109) (from UniProt Q9NSA1 29-209) (ligand)”, 6.38 nmol/L.

For “FGF21 H60C, S79C (SEQ ID NO: 75) (from UniProt Q9NSA1 29-209) (ligand)”, the pERK ICW EC50 amounted to 67.1 nmol/L. “FGF21 L81C, G95C (SEQ ID NO: 121) (from UniProt Q9NSA1 29-209) (ligand)” returned a pERK ICW EC50 of 46.5 nmol/L. With “FGF21 G198 deleted, P199L, S200N (SEQ ID NO: 33) (from UniProt Q9NSA1 29-209) (ligand)” the figure was 9.44 nmol/L.

As for “FGF21 Q55C, G148C, N149-R159 deleted and replaced by GGSGGS (SEQ ID NO: 95) (from UniProt Q9NSA1 29-209) (ligand)”, the pERK ICW EC50 is 7.27 nmol/L.

“FGF21 Q184 deleted (SEQ ID NO: 60) (from UniProt Q9NSA1 29-209) (ligand)” gave a pERK ICW EC50 of 2.26 nmol/L. With “FGF21 P143C, A162C (SEQ ID NO: 116) (from UniProt Q9NSA1 29-209) (ligand)” the figure was 17.6 nmol/L; with “FGF21 A59C, G71C (SEQ ID NO: 77) (from UniProt Q9NSA1 29-209) (ligand)”, 2.15 nmol/L. With “FGF21 S76C, S79C, P199 deleted (SEQ ID NO: 38) (from UniProt Q9NSA1 29-209) (ligand)” the figure was 1.25 nmol/L; with “FGF21 S76C, S79C (SEQ ID NO: 85) (from UniProt Q9NSA1 29-209) (ligand)”, 1.44 nmol/L; with “FGF21 A59C, G71C, G198Y (SEQ ID NO: 37) (from UniProt Q9NSA1 29-209) (ligand)”, 0.75 nmol/L. In turn, “FGF21 P199S, S200P (SEQ ID NO: 9) (from UniProt Q9NSA1 29-209) (ligand)” registered a pERK ICW EC50 of 1.72 nmol/L.

Turning to “FGF21 Q104C, H140C (SEQ ID NO: 108) (from UniProt Q9NSA1 29-209) (ligand)”, the pERK ICW EC50 was 21.9 nmol/L.

In the case of “FGF21 R100C, L114C (SEQ ID NO: 103) (from UniProt Q9NSA1 29-209) (ligand)”, the pERK ICW EC50 came out at 48.2 nmol/L. To “FGF21 S191 deleted (SEQ ID NO: 53) (from UniProt Q9NSA1 29-209) (ligand)” belongs 97.3 nmol/L; to “FGF21 G108C, L142C, G198Y (SEQ ID NO: 41) (from UniProt Q9NSA1 29-209) (ligand)”, 0.55 nmol/L. With “FGF21 H145C, P161C (SEQ ID NO: 120) (from UniProt Q9NSA1 29-209) (ligand)” the figure was 6.51 nmol/L. With “FGF21 M196 deleted, S201 deleted (SEQ ID NO: 70) (from UniProt Q9NSA1 29-209) (ligand)” the figure was 165 nmol/L; with “FGF21 A59C, A73C (SEQ ID NO: 105) (from UniProt Q9NSA1 29-209) (ligand)”, 19.2 nmol/L; with “FGF21 G198-P199 deleted (SEQ ID NO: 30) (from UniProt Q9NSA1 29-209) (ligand)”, 14.5 nmol/L.
